From patent US20240318146A1, “VASCULARIZED ORGANOIDS” (CHILDREN’S HOSPITAL MEDICAL CENTER, priority 2021, published 2024)

Tests used:
[1] = test system: mesendoderm spheroids; details: 50 ng/mL, day 3 to day 7 (FIG. 3C)
From the text: To form various organs properly, the endoderm transforms into a primitive gut tube and is then regionalized along the dorsal-ventral (D-V) and anterior-posterior (A-P) axis into foregut, midgut, and hindgut under the control of various signaling pathways: BMP and TGF-b inhibition facilitate foregut formation, while Wnt and FGF activation facilitate mid/hindgut development.

[2] = test system: Human pluripotency stem cells; test: Mesoderm vs. endoderm induction in human pluripotent stem cell spheroids (FOXA2/HAND1 staining, first three days); assay type: cell-based
Experimental: To recapitulate the gut tube organogenesis in vitro, a 3D suspension culture system to differentiate endoderm and mesoderm concomitantly from human iPSCs was established. By fine-tuning the dosage and timing of Wnt, Nodal (or TGF-b), and BMP activation, mesendoderm spheroids containing both definitive endodermal (DE, FOXA2+) and lateral plate mesoderm (LPM, HAND1+) populations were generated (FIG. 2A). It was also determined that ˜28 hours of the Wnt activation was a good duration for generating appropriate amounts of both DE and LPM populations from the iPSCs (approximately 1:1) (FIG. 2B). LPM derived splanchnic mesoderm (SM, FOXF1+) further gives rise to the mesenchyme surrounding the primitive gut tube. The SM will then differentiate into the connective tissue, smooth muscle cells (SMCs), and blood vessels of the endodermal organs.
• a) At Day −1, dissociate human iPSCs or human ESCs into single cells. • b) Using an Aggrewell plate (StemCell), or other compatible cell collection plate, generate spheroids of the pluripotent cells. Note: the number of cells in each microwell should be between 500-2000 cells. Accordingly, the spheroid diameter range should be from 50-200 μm. • c) Culture the cells in steady condition (37° C. cell incubator) overnight. Note: usually, the spheroid will form at day 0. […]

[3] = test system: Embryoid bodies (EBs); test: Single-cell RNA-seq of Day 3 meso/endoderm organoids; assay type: cell-based, human; details: accumulated stimulation (0, 1, 2, and 3 days), scRNA-seq at day 3 (FIG. 16E)
From the text: Embryoid bodies (EBs) receiving various duration of BMP4 stimulation (0, 1, 2, and 3 days) were subjected to single-cell RNA-seq at day 3 (FIG. 16A). They contained both mesoderm and endoderm populations. FIG. 16B depicts a feature plot of cell distributions under different BMP4 treatment durations. FIG. 16C depicts clustering of d3 meso/endoderm based on marker genes. FIG. 16D depicts a reference map comparison of d3 meso/endoderm to CS7 gastrulation human embryo AM: Advanced mesoderm; EM: Emergent mesoderm; PS: Primitive Streak. FIG. 16E depicts a cluster projection of day 3 meso/endoderm organoids to mouse early gastrulation embryos. i. UMAP of mouse E6.5˜E8.5 embryos. ii. Reverse projection of day 3 organoids to mouse embryos map.

[4] = test system: human vascularized gut tube organoids; test: Single-cell RNA-seq of Day 7 vascularized foregut and mid/hindgut organoids, reverse projection to mouse E8.75 gut tube atlas; assay type: cell-based
From the text: FIG. 17A depicts representative UMAP projection of foregut organoid (1-day treatment of BMP4 from day 1-3) and mid/hindgut organoid (3-days treatment of BMP4 from day 1-3). FIG. 17B-D depict reverse projection of human vascularized gut tube organoids to mouse E8.75 gut tube atlas. FIG. 17B depicts mouse E8.75 embryonic gut tube containing both anterior (A) and posterior (P) portion. Gut tube (endoderm), mesenchyme, and endothelium populations are segregated into A-P subclusters. FIG. 17C depicts Day 7 foregut organoid reverse projection to mouse E8.75 gut tube. […] FIG. 17D depicts Day 7 mid/hindgut organoid reverse projection to mouse E8.75 tube.

Q: VEGF was tested. Which “vascular network (CD31+) surrounding the FOXA2+ epithelial layer” value [1] did it give?
A: a significant amount of a vascular network (CD31+)

Q: With `Cc1c[nH]c(-c2cnc(NCCNc3ccc(C#N)cn3)nc2-c2ccc(Cl)cc2Cl)n1` [CHIR99201, reference compound] as the molecule, how does the mesoderm/endoderm ratio ([2]; Activation of Wnt under different durations, first three days (FIG. 14A)) read?
A: drastically changed mesoderm/endoderm ratio

B1: BMP4: BMP pathway activator, BMP protein (protein, UniProt P12644 293-408, looked up)
Bone morphogenetic protein 4: SPKHHSQRARKKNKNCRRHSLYVDFSDVGWNDWIVAPPGYQAFYCHGDCPFPLADHLNSTNHAIVQTLVNSVNSSIPKACCVPTELSAISMLYLDEYDKVVLKNYQEMVVEGCGCR
Q: Which mesoderm/endoderm ratio ([2]; Prolonged treatment (FIG. 14B)) does the source give for B1 here?
A: increased mesoderm/endoderm ratio

Q: And the mesenchymal population [3]?
A: augmented mesenchymal population

Q: And the neural lineage [3]?
A: reduced neural lineage

Q: What about the “anterior gut tube endoderm and endothelium populations” value ([4]; Day 7 foregut organoid, one-day treatment compared to no BMP4 (FIG. 17C)) of the same molecule?
A: generated purer anterior gut tube endoderm and more anterior endothelium

Q: And the “posterior gut tube endoderm, mesenchyme, and endothelium populations” value ([4]; Day 7 mid/hindgut organoid, longer treatment during the first three-day differentiation (FIG. 17D))?
A: induced more posterior gut tube endoderm, mesenchyme, and endothelium
